Data reported in patent US7109167.
No end group written: not given here. Oregon Green (5-isomer) = Oregon Green fluorescent label, 5-isomer

Tests used:
[1] = biological target: T1, NP-1/Fc (Neuropilin-1/Fc, R&D Systems); test: competition of 125I-VEGF165 binding to plate-coated NP-1/Fc
T1 construct: Bought reagent; also called Npn-1
Experimental: An assay buffer consisting of Hank's Balanced Salt Solution (HBSS), 25 mM HEPES, and 0.1% BSA, pH 7.4 was used, and for all experiments, Assay volume per well was 75 µl. Plates (Nunc MaxiSorp white opaque Microtiter plate [C-bottom, 437796]) were coated by incubating the wells with 75 µl of a solution containing 3 µlg/mL NP-1/Fc in D-PBS/0.1% NaAzide overnight at 4° C. after covering with sealing tape (Dynex, VWR Cat. No. 62402-931). The next day all wells, even control wells lacking NP-1/Fc, were blocked 2 hrs with blocking buffer (1% BSA in D-PBS with 0.05% v/v Tween-20) then washed 4× with PBST (D-PBS/0.05% v/v Tween-20) before starting the assay. All points were derived from triplicate wells, and for each set of replicates in NP-1/Fc-coated wells, a companion set in the absence of the receptor was included. […] After addition of the appropriate solutions, microtiter plates were incubated at 4° C. for 2 hours. Following the incubation, plates were hand-washed 5 times with D-PBS containing 0.05% Tween-20 and 0.1% BSA. The plates were blotted dry and 25 µl deionized water and 100 µl scintillation fluid (Optiphase SuperMix, Wallac) were added to each well.

[2] = biological target: T1, NP-1/Fc (Neuropilin-1/Fc, R&D Systems); test: fluorescence polarization competition against labeled BRU-326 on NP-1/Fc
[3] = biological target: T1, NP-1/Fc (Neuropilin-1/Fc, R&D Systems); test: fluorescence polarization, labeled ligand (5-20 nM) titrated with NP-1/Fc, 37 °C
Experimental: FP values (mP) for each substrate was measured by titrating the ligand (5–20 nM) with receptor protein using a Jolley Research and Consulting FPM-1 fluorescence Polarization analyzer. In each of these experiments the observed polarization values were plotted against receptor concentration. The mP values for 100% binding of tracer labeled ligand to receptor protein was calculated using the software provided by the vendor.
Figure 3: FIG. 3: Binding of TKPPR (SEQ ID NO: 2) derivatives with NP-1/Fc by Fluorescence Polarization. The indicated Oregon Green-labeled derivatives were incubated with increasing concentrations of NP-1 and polarization was measured. […] Figure 4: FIG. 4: Binding of TKPPR (SEQ ID NO: 2) derivatives with KDR-Fc by FP.

T1 sequence (Q9QWJ9 22-855): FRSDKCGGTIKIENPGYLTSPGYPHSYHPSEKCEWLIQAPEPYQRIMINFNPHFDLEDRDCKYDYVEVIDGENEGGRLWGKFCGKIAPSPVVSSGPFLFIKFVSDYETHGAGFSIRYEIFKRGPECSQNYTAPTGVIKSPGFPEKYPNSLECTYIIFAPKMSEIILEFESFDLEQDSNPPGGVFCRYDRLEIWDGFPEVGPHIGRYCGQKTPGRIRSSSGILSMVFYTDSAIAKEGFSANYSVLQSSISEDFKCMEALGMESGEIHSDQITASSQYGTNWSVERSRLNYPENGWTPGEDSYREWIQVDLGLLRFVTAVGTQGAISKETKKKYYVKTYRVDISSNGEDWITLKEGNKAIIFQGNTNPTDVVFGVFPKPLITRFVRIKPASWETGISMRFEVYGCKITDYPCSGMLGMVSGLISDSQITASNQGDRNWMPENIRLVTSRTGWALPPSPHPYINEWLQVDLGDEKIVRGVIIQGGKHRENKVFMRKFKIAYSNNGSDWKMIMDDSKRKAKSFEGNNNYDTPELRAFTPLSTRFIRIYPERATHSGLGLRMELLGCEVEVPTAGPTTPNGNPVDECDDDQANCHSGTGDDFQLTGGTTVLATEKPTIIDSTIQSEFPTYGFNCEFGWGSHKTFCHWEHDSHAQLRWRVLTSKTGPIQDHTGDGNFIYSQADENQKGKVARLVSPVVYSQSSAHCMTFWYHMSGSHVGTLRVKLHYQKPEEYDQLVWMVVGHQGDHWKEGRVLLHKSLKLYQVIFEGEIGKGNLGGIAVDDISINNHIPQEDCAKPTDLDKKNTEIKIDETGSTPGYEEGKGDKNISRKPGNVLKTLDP

Binder	IC50 [1]	IC50 [2]	Kd [3]
VEGF165 (ligand, UniProt P15692-4 27-191, looked up, 125I label on the radioligand form, Labelled and unlabelled forms and the different suppliers are kept as one molecule; also called unlabeled VEGF165) APMAEGGGQNHHEVVKFMDVYQRSYCHPIETLVDIFQEYPDEIEYIFKPSCVPLMRCGGCCNDEGLECVPTEESNITMQIMRIKPHQGQHIGEMSFLQHNKCECRPKKDRARQENPCGPCSERRKHLFVQDPQTCKCSCKNTDSRCKARQLELNERTCRCDKPRR	0.0005 µM	0.2 µM	
TKPPR (not fully specified (N-terminus); printed as OG-(TKPPR)2; also: dimer on branched scaffold with one Oregon Green label) [TKPPR dimer BRU-317, OG-(TKPPR)2]	3 µM		
{Oregon Green (5-isomer)}-GTKPPR-OH (also called OG-TKPPR; OG-TKPPR monomer) [BRU-239, Oregon Green (5-isomer)-GTKPPR-OH]	30 µM		
TKPPR-OH (not fully specified (N-terminus); printed as OG-(TKPPR)4; also: tetramer: four TKPPR chains joined via branched tetra-acid scaffold, free C-terminal Arg on each arm; also called tetrameric TKPPR) [TKPPR tetramer BRU-326, OG-(TKPPR)4]	0.13 µM		0.025 to 0.05 µM
TKPPR-OH (also called BRU-95; TKPPR-OH) [TKPPR (L-threonyl-L-lysyl-L-prolyl-L-prolyl-L-arginine), free monomeric peptide]	43 µM	80 µM	
